The source of these data is patent WO2016073157A1 (dated 2016).

Assay [1] deals with T1, hVEGF109 (human, UniProt P15692-4 34-135, limits assumed).
T1 construct: Numbers count on the mature 165-amino acid VEGF, not on the precursor; also called human VEGF (hVEGF 109)
T1 sequence (looked up): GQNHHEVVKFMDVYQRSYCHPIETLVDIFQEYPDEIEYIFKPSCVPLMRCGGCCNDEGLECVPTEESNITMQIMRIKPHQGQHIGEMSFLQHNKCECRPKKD
The assay can be described thus: BIACORE T200 SPR, hVEGF109 coupled to CM5 chip, Fab as analyte, VEGF inferred.

The target of assay [2] is T2, human Fc fusion of Ang2 protein (human, UniProt O15123 275-496, limits assumed).
T2 construct: Captured by anti-human Fc on the CM5 chip; also called hAng2 (SPR flow cell); not shown: human Fc
T2 sequence (looked up): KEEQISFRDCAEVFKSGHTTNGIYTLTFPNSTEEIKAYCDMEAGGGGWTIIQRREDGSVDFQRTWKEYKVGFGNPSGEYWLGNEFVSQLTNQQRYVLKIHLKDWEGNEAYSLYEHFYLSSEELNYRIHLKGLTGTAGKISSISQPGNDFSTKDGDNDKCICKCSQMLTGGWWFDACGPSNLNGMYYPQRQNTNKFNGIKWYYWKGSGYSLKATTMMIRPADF
The assay can be described thus: BIACORE T200 SPR, human Fc fusion of Ang2 captured by anti-human Fc, Fab as analyte, Ang2 inferred.

Assay [3] addresses T1, hVEGF109. Nature of the assay: phage competition ELISA (phage IC50), hVEGF109 in solution and on the plate, VEGF inferred.
Assay [4] has as its target T1, hVEGF109. Nature of the assay: BIACORE SPR at 25 C; hVEGF109 immobilized on CM5 chip, variant clone as analyte (monovalent affinity).
In assay [5] the target is T1, hVEGF109. The assay can be described thus: BIACORE SPR at 25 C; hVEGF109 immobilized on CM5 chip, Fab as analyte (monovalent affinity).
Assay [6] addresses T3, His-tagged human Ang2 (hAng2his8) (human, UniProt O15123 19-496, limits assumed).
T3 construct: neither is tied to this construct; not shown: His tag (his8)
T3 sequence (looked up): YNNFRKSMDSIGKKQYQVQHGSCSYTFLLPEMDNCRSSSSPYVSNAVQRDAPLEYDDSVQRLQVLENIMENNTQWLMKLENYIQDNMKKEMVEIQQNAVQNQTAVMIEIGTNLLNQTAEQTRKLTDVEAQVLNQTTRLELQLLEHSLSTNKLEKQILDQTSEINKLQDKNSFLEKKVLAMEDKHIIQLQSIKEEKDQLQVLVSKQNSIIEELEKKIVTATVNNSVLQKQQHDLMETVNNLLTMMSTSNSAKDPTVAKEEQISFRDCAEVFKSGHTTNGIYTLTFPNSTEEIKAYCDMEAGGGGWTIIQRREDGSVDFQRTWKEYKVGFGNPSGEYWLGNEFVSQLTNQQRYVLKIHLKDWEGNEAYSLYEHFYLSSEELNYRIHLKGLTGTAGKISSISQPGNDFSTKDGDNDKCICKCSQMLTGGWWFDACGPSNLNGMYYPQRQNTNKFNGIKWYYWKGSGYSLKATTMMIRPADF
Nature of the assay: BIACORE SPR at 25 C; hAng2his8 immobilized on CM5 chip, Fab as analyte (monovalent affinity).

B1: 5A12 4.2 LC.Q89H/LC.L93K ("D") (Fab, V domains shown)
VH: EVQLVESGGGLVQPGGSLRLSCAASGFTISDYWIHWVRQAPGKGLEWVAGITPAGGYTYYADSVKGRFTISADTSKNTAYLQMNSLRAEDTAVYYCARFVFFLPYAMDYWGQGTLVTVSS
VL: DIQMTQSPSSLSASVGDRVTITCRASQFLSSFGVAWYQQKPGKAPKLLIYGASSLYSGVPSRFSGSGSGTDFTLTISSLQPEDFATYYCHQGLKSPLTFGQGTKVEIK
notes: 5A12 4.2 variant; Fab on phage in the IC50 assay, purified Fab in SPR
B1: the figures for the Kd (in the assay with hVEGF109 [1]; in assay [2]) were 0.675 nM and 0.259 nM, respectively. This molecule gave a concentration for half-maximal inhibition (IC50) in the assay with hVEGF109 [3] of 3.71 nM.

B2: 5A12 4.2 (Fab, V domains shown)
VH: EVQLVESGGGLVQPGGSLRLSCAASGFTISDYWIHWVRQAPGKGLEWVAGITPAGGYTYYADSVKGRFTISADTSKNTAYLQMNSLRAEDTAVYYCARFVFFLPYAMDYWGQGTLVTVSS
VL: DIQMTQSPSSLSASVGDRVTITCRASQFLSSFGVAWYQQKPGKAPKLLIYGASSLYSGVPSRFSGSGSGTDFTLTISSLQPEDFATYYCQQGLLSPLTFGQGTKVEIK
notes: also called Fab5A12 4.2
Regarding B2, in the assay with hVEGF109 [4], the “apparent Kd (pooled screen)” value was 5 nM.

B3: 5A12 4.2 LC.Q89H (Fab, V domains shown)
VH: EVQLVESGGGLVQPGGSLRLSCAASGFTISDYWIHWVRQAPGKGLEWVAGITPAGGYTYYADSVKGRFTISADTSKNTAYLQMNSLRAEDTAVYYCARFVFFLPYAMDYWGQGTLVTVSS
VL: DIQMTQSPSSLSASVGDRVTITCRASQFLSSFGVAWYQQKPGKAPKLLIYGASSLYSGVPSRFSGSGSGTDFTLTISSLQPEDFATYYCHQGLLSPLTFGQGTKVEIK
notes: 5A12 4.2 variant; Fab on phage in the IC50 assay; also called LC-89H
Regarding B3, the IC50 in the assay with hVEGF109 [3] turned out to be 0.138 nM.

B4: 5A12 4.2 LC.L92S (Fab, V domains shown)
VH: EVQLVESGGGLVQPGGSLRLSCAASGFTISDYWIHWVRQAPGKGLEWVAGITPAGGYTYYADSVKGRFTISADTSKNTAYLQMNSLRAEDTAVYYCARFVFFLPYAMDYWGQGTLVTVSS
VL: DIQMTQSPSSLSASVGDRVTITCRASQFLSSFGVAWYQQKPGKAPKLLIYGASSLYSGVPSRFSGSGSGTDFTLTISSLQPEDFATYYCQQGSLSPLTFGQGTKVEIK
notes: 5A12 4.2 variant; Fab on phage in the IC50 assay; also called LC-92S
For the molecule B4, the IC50 in the assay with hVEGF109 [3] turned out to be 27.7 nM.

B5: 5A12 4.2 LC.Q89W (Fab, V domains shown)
VH: EVQLVESGGGLVQPGGSLRLSCAASGFTISDYWIHWVRQAPGKGLEWVAGITPAGGYTYYADSVKGRFTISADTSKNTAYLQMNSLRAEDTAVYYCARFVFFLPYAMDYWGQGTLVTVSS
VL: DIQMTQSPSSLSASVGDRVTITCRASQFLSSFGVAWYQQKPGKAPKLLIYGASSLYSGVPSRFSGSGSGTDFTLTISSLQPEDFATYYCWQGLLSPLTFGQGTKVEIK
notes: 5A12 4.2 variant; Fab on phage in the IC50 assay; also called LC-89W
Consider B5, for which the IC50 with hVEGF109 [3] was determined as 2.55 nM.

B6: 5A12 4.2.16.2 (Fab, V domains shown)
VH: EVQLVESGGGLVQPGGSLRLSCAASGFTISDYWIYWVRQAPGKGLEWVAGITPAGGYEYYADSVKGRFTISADTSKNTAYLQMNSLRAEDTAVYYCARFVFFLPYVMDYWGQGTLVTVSS
VL: DIQMTQSPSSLSASVGDRVTITCRASQFLSSFGVGWYQQKPGKAPKLLIYGASSLYSGVPSRFSGSGSGTDFTLTISSLQPEDFATYYCWQGLLSPLTFGQGTKVEIK
notes: purified Fab as analyte in SPR; also called DAF16.2
Regarding B6, the dissociation constant (Kd) is less than 0.003 nM with hVEGF109 [5] and 1.51 nM in assay [6].

B7: 5A12 4.2 LC.L93K (Fab, V domains shown)
VH: EVQLVESGGGLVQPGGSLRLSCAASGFTISDYWIHWVRQAPGKGLEWVAGITPAGGYTYYADSVKGRFTISADTSKNTAYLQMNSLRAEDTAVYYCARFVFFLPYAMDYWGQGTLVTVSS
VL: DIQMTQSPSSLSASVGDRVTITCRASQFLSSFGVAWYQQKPGKAPKLLIYGASSLYSGVPSRFSGSGSGTDFTLTISSLQPEDFATYYCQQGLKSPLTFGQGTKVEIK
notes: 5A12 4.2 variant; Fab on phage in the IC50 assay; also called LC-93K
The molecule B7 displayed an IC50 with hVEGF109 [3] of 0.48 nM.

B8: 5A12 4.2 LC.A34N (Fab, V domains shown)
VH: EVQLVESGGGLVQPGGSLRLSCAASGFTISDYWIHWVRQAPGKGLEWVAGITPAGGYTYYADSVKGRFTISADTSKNTAYLQMNSLRAEDTAVYYCARFVFFLPYAMDYWGQGTLVTVSS
VL: DIQMTQSPSSLSASVGDRVTITCRASQFLSSFGVNWYQQKPGKAPKLLIYGASSLYSGVPSRFSGSGSGTDFTLTISSLQPEDFATYYCQQGLLSPLTFGQGTKVEIK
notes: 5A12 4.2 variant; Fab on phage in the IC50 assay; also called LC-34N
For the molecule B8, in the assay with hVEGF109 [3], the IC50 came out at 221 nM.
